Reference: publication PMC4833410, “Structure-Guided Mutations in the Terminal Organelle Protein MG491 Cause Major Motility and Morphologic Alterations on Mycoplasma genitalium” (PLoS Pathogens, 2016)

Experiments:
[1] = target: MG491-Nt (residues 1 to 308) (Mycoplasma genitalium G37) (UniProt Q9ZB78); assay: crystal structure; vapour diffusion at 20°C, 0.2 M lithium sulphate, 25% PEG 3350, pH 6.5-8.5; space group P2(1)2(1)2, four subunits in the asymmetric unit; SAD on seleno methionine MG491-Nt, averaging between crystals
[2] = target: MG491-Nt (residues 1 to 308) (Mycoplasma genitalium G37) (UniProt Q9ZB78); assay: native MS; nano-ElectroSpray Ionization Mass Spectrometry, 10 μM MG491-Nt in 100 mM NH4OAc, acquisition range 500-8000 m/z
[3] = target: MG491-Nt (residues 1 to 308) (Mycoplasma genitalium G37) (UniProt Q9ZB78); assay: SEC; Superdex 200 16/60 gel filtration column, 0.05 M Tris-HCl (pH 8.0), 0.15 M NaCl; apparent molecular weight
[4] = target: the molecule itself; assay: crystal structure; vapour diffusion at 20°C, 0.2 M lithium sulphate, 25% PEG 3350, pH 6.5-8.5; space group P2(1)2(1)2, four subunits in the asymmetric unit; SAD on seleno methionine MG491-Nt, averaging between crystals

Row | Molecule | stoichiometry N [1] | stoichiometry N [2] | stoichiometry N [3] | stoichiometry N [4]
1 | MG491-Nt (residues 1 to 308) (from UniProt Q9ZB78 1-308) (domain or fragment) | 4 | 4 | 4 | 
2 | seleno methionine-labeled MG491-Nt (domain or fragment, seleno methionines at 36, 168 and 205, MG491 of Mycoplasma genitalium G37, residues 1-308, with Ile36, Ile168 and Ile205 replaced by (seleno)methionine; residues 65-204, 67-203, 66-203 and 62-205 of subunits A-D are seen in the structure; also called Seleno methionine MG491-Nt; MG491-Nt variant with Ile36, Ile168, Ile205 replaced by seleno methionines; source: E. coli BL21 (DE3) in SelenoMet medium, purified (HisTrap HP, Superdex 200 …)) MVNNEYQQLNTLVESDDEADLVIANLVKQLNELKQMLVSLDNQEASATAVTDKKEEEYNQNQSSFHNFSKETLQKQAKRGFLLLERCSLVGLQQLELEYVNLLGRSFDSYQQKTELLNNLKELVDEHFSDTEKIINTLEKIFDVIGGSEYTPVLNSFFNKLLSDPDPMQREIGLRQFIITLRQRFKKLSQKIDSSLKQIETEAKMATEQVQNSEVMFGPPDIANDHELNLNWPDSETDAILSSMENELEAALLAKHQEEPPLIVTPPSLIKPTVSQPEVEVVTPTNNTNFQPQVDLKPTDLKKQQKKK |  |  |  | 4
3 | full length MG491 protein (residues 1 to 346) (natural protein, MG491, terminal organelle protein of Mycoplasma genitalium G37, residues 1-346; the TGA codon of Trp232 was changed to TGG for expression in E. coli (no change of the protein); Cloned in pET21d between NdeI and XhoI; In the crystals the C-terminal region was lost by proteolysis; also called MG_491 gene product; wild type MG491; source: E. coli BL21 (DE3), purified (HisTrap HP, Superdex 200 16/60)) MVNNEYQQLNTLVESDDEADLVIANLVKQLNELKQILVSLDNQEASATAVTDKKEEEYNQNQSSFHNFSKETLQKQAKRGFLLLERCSLVGLQQLELEYVNLLGRSFDSYQQKTELLNNLKELVDEHFSDTEKIINTLEKIFDVIGGSEYTPVLNSFFNKLLSDPDPIQREIGLRQFIITLRQRFKKLSQKIDSSLKQIETEAKIATEQVQNSEVMFGPPDIANDHELNLNWPDSETDAILSSMENELEAALLAKHQEEPPLIVTPPSLIKPTVSQPEVEVVTPTNNTNFQPQVDLKPTDLKKQQKKKPLNFITRPVFKSNLPPKLSKDDIVHYAHQLLEKNTHNE |  |  |  | 4
